Molecular target: Glutathione S-transferase (GST) (UniProt P08515 1-218)
Assay: bead fluorescence, confocal microscopy; 37 °C; BB: 20 mM HEPES pH 7.4, 120 mM NaCl, 5 mM KCl, 2 mM MgCl2; wash BB + 0.05% Tween 20; 37 °C, 40 min (section 2.1 gives another binding buffer: DPBS, 5 mM MgCl2)
Conditions: protein: recombinant, tags: biotinylated, on streptavidin agarose beads, chain copies: 2

Sequence of Glutathione S-transferase (GST) (P08515 whole entry): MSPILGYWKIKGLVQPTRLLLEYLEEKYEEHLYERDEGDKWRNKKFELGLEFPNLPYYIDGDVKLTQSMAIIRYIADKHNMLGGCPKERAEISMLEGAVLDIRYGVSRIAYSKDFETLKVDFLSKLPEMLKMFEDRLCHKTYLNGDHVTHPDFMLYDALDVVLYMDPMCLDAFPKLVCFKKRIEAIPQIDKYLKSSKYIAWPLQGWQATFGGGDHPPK

Binder | Kd (label: FAM) | Kd (label: FAM (also called AF488), two small stem-loops with a large loop (Mfold))
TGCCGGTCGGGGGTTGGGGATCTCTCTTGGGGGAGGGTT (ssDNA) [Seq3-3] | 268 ± 89.4 nM | –
Seq3 (ssDNA) DNA: AGCGTCGGATACCACTACTATGCCGGTCGGGGGTTGGGGATCTCTCTTGGGGGAGGGTTATCATGGAGTTCGTGGTCAG | – | 34 ± 5.6 nM
Seq3-2 (ssDNA) DNA: AGCGTCGGATACCACTACTATGCCGGTCGGGGGTTGGGGATCTCTCTTGGGGGAGGGTT | 118 ± 21.7 nM | –
Seq3-1 (ssDNA) DNA: TGCCGGTCGGGGGTTGGGGATCTCTCTTGGGGGAGGGTTATCATGGAGTTCGTGGTCAG | 29.3 ± 4.8 nM | –

Source: article PMC11505714, “A Double-Stranded Aptamer for Highly Sensitive Fluorescent Detection of Glutathione S-Transferases”
